According to article PMC10245814 (bioRxiv, 2023):

Biological target: T1, BabA^AD (residues 25 to 460 of mature BabA) (Helicobacter pylori 17875/Leb (CCUG …))
T1 chain: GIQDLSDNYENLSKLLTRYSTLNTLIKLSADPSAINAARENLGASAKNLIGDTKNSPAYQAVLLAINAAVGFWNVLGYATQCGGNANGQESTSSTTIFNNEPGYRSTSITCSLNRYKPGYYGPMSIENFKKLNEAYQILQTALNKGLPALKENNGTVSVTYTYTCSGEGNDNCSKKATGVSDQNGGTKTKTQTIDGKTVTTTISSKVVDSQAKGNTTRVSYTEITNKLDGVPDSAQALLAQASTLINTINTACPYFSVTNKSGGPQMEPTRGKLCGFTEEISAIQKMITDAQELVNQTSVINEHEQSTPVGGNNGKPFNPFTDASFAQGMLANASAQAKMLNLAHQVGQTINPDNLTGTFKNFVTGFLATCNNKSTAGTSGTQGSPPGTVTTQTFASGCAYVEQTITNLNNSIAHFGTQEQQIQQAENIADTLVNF
Assay: crystal structure

- binding result: binds
B1: nanobody Nb-ER19 (VHH)
VHH: QVQLQESGGGLVQPGGSLRLSCAASGSIFSGNVMGWYRQAPGKLREWVAAITPQGVPNYADSVKGRFTISRDNAKNMLYLQMSSLKPEDTALYYCNRLPNYRSWGQGTQVTVSS
